Experimental data: PMC3177189
Where two headings read alike, the source gives them in different places.

Tests used:
[1] = molecular target: EcNusB F122D (Escherichia coli, UniProt P0A780 1-139, F122D); test: ITC
[2] = molecular target: T1, AaNusB;AaNusE (S10) loop deletion (Aquifex aeolicus;Aquifex aeolicus, UniProt O66530;O66430 1-148;1-46+=S+69-104, |internal_change); test: crystal structure
T1 sequence 1: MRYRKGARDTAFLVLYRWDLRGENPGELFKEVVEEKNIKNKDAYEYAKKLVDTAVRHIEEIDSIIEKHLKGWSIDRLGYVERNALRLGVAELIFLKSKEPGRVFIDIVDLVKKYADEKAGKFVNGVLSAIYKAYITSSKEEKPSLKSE
T1 sequence 2: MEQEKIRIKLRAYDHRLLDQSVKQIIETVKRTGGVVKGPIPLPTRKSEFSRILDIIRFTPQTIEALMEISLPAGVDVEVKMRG

[3] = molecular target: EcNusB wt (Escherichia coli, UniProt P0A780 1-139); test: NMR
[4] = molecular target: T1, AaNusB;AaNusE (S10) loop deletion; test: crystal structure; remark: listed apart in the source

UGCUCUUUAACA (ssRNA) [EcBoxA]: no binding [1].

B1: AaBoxA duplex (dsRNA) (dsRNA)
RNA 1: GGCUCCUUGGCA
RNA 2: GGCUCCUUGGCA
B1: binds [2].

GCCGCGCCGCUGAGAAAAAGCGAAGCGGCACUGCUCUUUA (structured_RNA) [EcBoxA-BoxB]: binds [3].

GGCUCCUUGGCA (ssRNA) [AaBoxA]: binds [4].
